Sequences and labels used below:
B1: V20I/A71D: variant CD80 IgV-Fc, IgV SEQ ID NO:215 (protein)
chain: VIHVTKEVKEVATLSCGHNISVEELAQTRIYWQKEKKMVLTMMSGDMNIWPEYKNRTIFDITNNLSIVILDLRPSDEGTYECVVLKYEKDAFKREHLAEVTLSVKAD
B2: E23D/M42V/M43I/I58V/L70R: variant CD80 IgV-Fc, IgV SEQ ID NO:209 (protein)
chain: B1 chain with I20V, E23D, M42V, M43I, I58V, L70R, D71A
B3: H18Y/A71D/L72P/E88V: variant CD80 IgV-Fc, IgV SEQ ID NO:214 (protein)
chain: B1 chain with H18Y, I20V, L72P, E88V
B4: E35D/T57A/A71D/L85Q: variant CD80 IgV-Fc, IgV SEQ ID NO:206 (protein)
chain: B1 chain with I20V, E35D, T57A, L85Q
B5: V20I/M47V/A71D: variant CD80 IgV-Fc, IgV SEQ ID NO:191 (protein)
chain: B1 chain with M47V
B6: E35D/M43I/A71D: variant CD80 IgV-Fc, IgV SEQ ID NO:212 (protein)
chain: B1 chain with I20V, E35D, M43I
B7: M42I/I61V/A71D: variant CD80 IgV-Fc, IgV SEQ ID NO:187 (protein)
chain: B1 chain with I20V, M42I, I61V
B8: M47L/V68A: variant CD80 IgV-Fc, IgV SEQ ID NO:181 (protein)
chain: B1 chain with I20V, M47L, V68A, D71A
B9: K36R/G78A: variant CD80 IgV-Fc, IgV SEQ ID NO:178 (protein)
chain: B1 chain with I20V, K36R, D71A, G78A
B10: T41S/T57I/L70R: variant CD80 IgV-Fc, IgV SEQ ID NO:213 (protein)
chain: B1 chain with I20V, T41S, T57I, L70R, D71A
B11: A26P/E35D/M43I/L85Q/E88D: variant CD80 IgV-Fc, IgV SEQ ID NO:202 (protein)
chain: B1 chain with I20V, A26P, E35D, M43I, D71A, L85Q, E88D
B12: Q27H/E35G/A71D/L72P/T791: variant CD80 IgV-Fc, IgV SEQ ID NO:196 (protein)
chain: B1 chain with I20V, Q27H, E35G, L72P, T79I
B13: M47V/N48H: variant CD80 IgV-Fc, IgV SEQ ID NO:180 (protein)
chain: B1 chain with I20V, M47V, N48H, D71A
B14: V22L/E35G/A71D/L72P: variant CD80 IgV-Fc, IgV SEQ ID NO:193 (protein)
chain: B1 chain with I20V, V22L, E35G, L72P
B15: V68M/L70M/A71D/E95K: variant CD80 IgV-Fc, IgV SEQ ID NO:210 (protein)
chain: B1 chain with I20V, V68M, L70M, E95K
B16: E35D/I57I/L70Q/A71D: variant CD80 IgV-Fc, IgV SEQ ID NO:185 (protein)
chain: B1 chain with I20V, E35D, T57I, L70Q
B17: N55I/T57I/I69F: variant CD80 IgV-Fc, IgV SEQ ID NO:211 (protein)
chain: B1 chain with I20V, N55I, T57I, I69F, D71A
B18: M47V/I69F/A71D/V831: variant CD80 IgV-Fc, IgV SEQ ID NO:205 (protein)
chain: B1 chain with I20V, M47V, I69F, V83I
B19: Q27H/M43I/A71D/R73S: variant CD80 IgV-Fc, IgV SEQ ID NO:183 (protein)
chain: B1 chain with I20V, Q27H, M43I, R73S
B20: T13R/M42V/M47I/A71D: variant CD80 IgV-Fc, IgV SEQ ID NO:197 (protein)
chain: B1 chain with T13R, I20V, M42V, M47I
B21: E35D/I67L/A71D: variant CD80 IgV-Fc, IgV SEQ ID NO:195 (protein)
chain: B1 chain with I20V, E35D, I67L
B22: S44P/A71D: variant CD80 IgV-Fc, IgV SEQ ID NO:182 (protein)
chain: B1 chain with I20V, S44P
B23: A12T/E24D/E35D/D46V/I61V/L72P/E95V: variant CD80 IgV-Fc, IgV SEQ ID NO:217 (protein)
chain: B1 chain with A12T, I20V, E24D, E35D, D46V, I61V, D71A, L72P, E95V
B24: M47I/E88D: variant CD80 IgV-Fc, IgV SEQ ID NO:186 (protein)
chain: B1 chain with I20V, M47I, D71A, E88D
B25: E35D/A71D/L72V: variant CD80 IgV-Fc, IgV SEQ ID NO:200 (protein)
chain: B1 chain with I20V, E35D, L72V
B26: H18Y/M47I/T57I/A71G: variant CD80 IgV-Fc, IgV SEQ ID NO:189 (protein)
chain: B1 chain with H18Y, I20V, M47I, T57I, D71G
B27: Q33E/T41A: variant CD80 IgV-Fc, IgV SEQ ID NO:179 (protein)
chain: B1 chain with I20V, Q33E, T41A, D71A
B28: Q27L/E35D/M47I/T57I/L70Q/E88D: variant CD80 IgV-Fc, IgV SEQ ID NO:204 (protein)
chain: B1 chain with I20V, Q27L, E35D, M47I, T57I, L70Q, D71A, E88D
B29: V20I/M47V/I57I/V84I: variant CD80 IgV-Fc, IgV SEQ ID NO:190 (protein)
chain: B1 chain with M47V, T57I, D71A, V84I
B30: E35D/A71D: variant CD80 IgV-Fc, listed twice: IgV SEQ ID NO:176 (Table E1) and 194 (Table E2) (protein)
chain: B1 chain with I20V, E35D

Where a chain is given by its changes, count along the chain named. Numbers in names are those of the source.

The first assay addresses CD28 (Homo sapiens, UniProt P10747). Kind of assay: Jurkat/IL2 reporter assay: blockade of CD28 costimulation (plate-bound anti-CD3/CD86-Fc). The format is cell-based. On the set-up: host or cells: Jurkat cells expressing an IL-2-luciferase reporter. The conditions noted are these: Table E5; protein diluted to 40 nM before mixing with cells; 5 hours. As to the method:
The day before the assay, the assay plate was prepared. […] The plate was incubated overnight at 4° C. to allow the antibody and CD86-Fc protein to adhere to the surface of the plate. The next day, the wells of the assay plate were washed twice with 150 μL PBS prior to the assay.
Jurkat effector cells expressing IL-2-luciferase reporter were counted and resuspended in assay buffer to a concentration of 2×10^6 cells/mL. 60 μL of the Jurkat cell suspension were then added to the wells containing the CD80-Fc fusion molecules or controls. The cells and CD80 proteins were incubated at room temperature for 15 minutes and then 100 μL of the cell/CD80 protein mixture were transferred/well of the prepared anti-CD3/CD86-Fc assay plate.
The assay plate was briefly spun down (10 seconds at 1200 RPM) and incubated at 37° C. for 5 hours. After the 5 hour incubation, the plate was removed and equilibrated to room temperature for 15 minutes. 100 μL of Bio-Glo (Promega) were added/well of the assay plate, which was then placed on an orbital shaker for 10 minutes. Luminescence was measured with a 1 second per well integration time using a BioTek Cytation 3 luminometer.
(In general: Reporter assays use an easily measured gene product as a stand-in for the process of interest.)
For B1, the “Average Relative Luminescence Units” value was 2165 Relative Luminescence Units. Still for that read-out and setting: as for B2, the figure is 4460 Relative Luminescence Units; as for B3, 1354 Relative Luminescence Units; as for B4, 3213 Relative Luminescence Units. Consider B5, for which the “Average Relative Luminescence Units” value is recorded as 360 Relative Luminescence Units. Consider B6, for which the “Average Relative Luminescence Units” value is recorded as 3019 Relative Luminescence Units. On to B7, for which the “Average Relative Luminescence Units” value is given as 2549 Relative Luminescence Units. Regarding B8, the “Average Relative Luminescence Units” value was 5445 Relative Luminescence Units. The same measure, in the same setting: as for B9, the figure is 2597 Relative Luminescence Units. For the molecule B10, the “Average Relative Luminescence Units” value was 3641 Relative Luminescence Units.

In the case of B11, the “Average Relative Luminescence Units” value is on record as 4078 Relative Luminescence Units. B12: the “Average Relative Luminescence Units” value was 2000 Relative Luminescence Units. As to B13, the “Average Relative Luminescence Units” value is 2656 Relative Luminescence Units.

B14: the “Average Relative Luminescence Units” value is on record as 2334 Relative Luminescence Units.

For B15, the “Average Relative Luminescence Units” value was 2067 Relative Luminescence Units. For B16, the “Average Relative Luminescence Units” value is 280 Relative Luminescence Units. As for B17, the “Average Relative Luminescence Units” value was 1915 Relative Luminescence Units. Still for that read-out and setting: as for B18, the figure is 290 Relative Luminescence Units. For B19, the “Average Relative Luminescence Units” value is given as 1891 Relative Luminescence Units.

B20: the “Average Relative Luminescence Units” value is reported as 759 Relative Luminescence Units. For B21, the “Average Relative Luminescence Units” value is listed as 1223 Relative Luminescence Units. Regarding B22, the “Average Relative Luminescence Units” value is 2848 Relative Luminescence Units. As to B23, the “Average Relative Luminescence Units” value is on record as 2408 Relative Luminescence Units. For B24, the “Average Relative Luminescence Units” value is reported as 2178 Relative Luminescence Units. B25: the “Average Relative Luminescence Units” value is 1152 Relative Luminescence Units. On to B26, for which the “Average Relative Luminescence Units” value is 924 Relative Luminescence Units. Turning to B27, the “Average Relative Luminescence Units” value was 4220 Relative Luminescence Units. On to B28, for which the “Average Relative Luminescence Units” value is reported as 1180 Relative Luminescence Units. B29: the “Average Relative Luminescence Units” value was 1870 Relative Luminescence Units.

Still in this assay, the particulars now being: Table E5; protein diluted to 40 nM before mixing with cells; 5 hours; SEQ ID NO 176.
B30: the “Average Relative Luminescence Units” value is recorded as 1461 Relative Luminescence Units.
